Experimental data from patent US20130216513A1 (Biogen, published 2013).

Biological target: T1, GPIIbIIIa on activated human platelets (human, UniProt P08514 32-1039; P05106 27-788)
T1 construct: whole, on cells; also called active form of GPIIbIIIa
Test: FACS on activated human platelets, FITC-labeled FVII antibody; reference FVIIaFc (FVII-011); FIG. 44C

binding result: binds
B1: FVII-094 (other)
chain 1: ANAFLEELRPGSLERECKEEQCSFEEAREIFKDAERTKLFWISYSDGDQCASSPCQNGGSCKDQLQSYICFCLPAFEGRNCETHKDDQLICVNENGGCEQYCSDHTGTKRSCRCHEGYSLLADGVSCTPTVEYPCGKIPILEKRNASKPQGR
chain 2: IVGGKVCPKGECPWQVLLLVNGAQLCGGTLINTIWVVSAAHCFDKIKNWRNLIAVLGEHDLSEHDGDEQSRRVAQVIIPSTYVPGTTNHDIALLRLHQPVVLTDHVVPLCLPERTFSERTLAFVRFSLVSGWGQLLDRGATALELMVLNVPRLMTQDCLQQSRKVGDSPNITEYMFCAGYSDGSKDSCKGDSGGPHATHYRGTWYLTGIVSWGQGCATVGHFGVYTRVSQYIEWLQKLMRSEPRPGVLLRAPFPDIGGGGSGGGGSGGGGSGGGGSGGGGSGGGGSAQVQLQESGGGLVQPGGSLRLSCAASGFMFSRYAMSWVRQAPGKGPEWVSGISGSGGSTYYADSVKGRFTVSRDNSKNTLYLQMNSLRAEDTAVYYCARGATYTSRSDVPDQTSFDYWGQGTLVTVSSGSASAPKLEEGEFSEARVSELTQDPAVSVALGQTVRITCQGDSLRNFYASWYQQKPGQAPTLVIYGLSKRPSGIPDRFSASSSGNTASLTITGAQAEDEADYYCLLYYGGGQQGVFGGGTKLTVLRQPKAAPSVTLFPPSSAA
notes: SCE5 at the C-terminus of FVIIa; no Fc; also called pSYN-FVII-094
